{
  "source": "paper PMC12436196",
  "target": "NPM1 (UniProt P06748)",
  "assay": "Co-IP of Flag-MST4 with HA-NPM1",
  "details": "reference: Flag-MST4 wild type; sites T178",
  "data": [
    {"substance": "MST4 (from UniProt Q9P289) Flag-MST4 T178A", "values": [
      {"measurement": "binding against the reference", "result": "weaker"}
    ]}
  ]
}
